# Results reported in patent publication US20140227280A1 (CENTRE NATIONAL DE LA RECHERCHE SCIENTIFIQUE, published 2014).
# B1: MCM5 (other, mouse, UniProt P49718 2-734, looked up)
# chain: SGFDDPGIFYSDSFGGDPGAEEGQARKSQLQRRFKEFLRQYRVGTDRTGFTFKYRDELKRHYNLGEYWIEVEMEDLASFDEELADHLHKQPAEHLQLLEEAAKEVADEVTRPRPAGDELLQDIQVMLKSDASPSSIRILKSDMMSHLVKIPGIIISASAVRAKATRISIQCRSCHNTLTNIAMRPGLEGYALPRKCNMDQAGRPKCPLDPYFIMPDKCKCVDFQTLKLQELPDAVPHGEMPRHMQLYCDRYLCDKVVPGNRVTIMGIYSIKKFGLNPSKGRDRVGVGIRSSYIRVLGIQVDTDGSGRSFAGSVSPQEEEEFRRLAALPNIYELISKSISPSIFGGMDMKKAIACLLFGGSRKRLPDGLTRRGDINLLMLGDPGTAKSQLLKFVEKCSPIGVYTSGKGSSAAGLTASVIRDPSSRNFIMEGGAMVLADGGVVCIDEFDKMREDDRVAIHEAMEQQTISIAKAGITTTLNSRCSVLAAANSVFGRWDETKGEDNIDFMPTILSRFDMIFIVKDEHNEERDMMLAKHVMTLHVSALTQTQAVEGEIDLAKMKKFIAYCRARCGPRLSAEAAEKLKNRYIIMRSGARQHERDSDRRSSIPITVRQLEAIVRIAEALSKMKLQPFATEADVEEALRLFQVSTLDAALSGNLSGVEGFTTQEDQEMLSRIEKQLKRRFAIGSQVSEHSIVQDFTKQKYPEHAIRKVLQLMLRRGEIQHRMQRKVLYRLK
# notes: Detected by western blot (sc-22780) in the immunoprecipitates from mouse testes extracts; also called member of the MCM2-7 complex
# B2: mouse MCM8 protein (other)
# chain: MSGAYRGRGFGRGRFQSWKRGRGGGNFSGRWRERENRVDLNEASGKHASAQASQPLLQQSTLDQFIPYKGWKLYFSEVYSNNSPFIEKIQAFEKFFTRHIDLYDKDEIERKGSILVDFKELTKADEITNLIPDIENALRDAPEKTLACMGLAIHQVLTKDLERHAAELQAQEGLSNGGETMVNVPHIYARVYNYEPLTHLKNIRATCYGKYISIRGTVVRVSNIKPLCTNMAFQCAACGEIQSFPLPDGKYTLPTKCPVPACRGRSFAPLRSSPLTVTLDWQLIKIQELMSDAQREAGRIPRTIECELVHDLVDSCVPGDTVTVTGIVKVSNSEEGSRNKNDKCMFLLYIEANSVSNSKGPKAQTAEDGCKHGTLMEFSLKDLYAIREIQAEENLLKLVVNSLCPVIFGHELVKAGLTLALFGGSQKYADDKNRIPIRGDPHVLIVGDPGLGKSQMLQAACNVAPRGVYVCGNTTTSSGLTVTLSKDSSSGDFALEAGALVLGDQGICGIDEFDKMGNQHQALLEAMEQQSISLAKAGVVCSLPARTSIVAAANPVGGHYNKARTVSENLKMGSALLSRFDLVFILLDTPNEQHDHLLSEHVIAIRAGKQKAVSSATVTRVLSQDSNTSVLEVVSEKPLSERLKVAPGEQTDPIPHQLLRKYIGYARQYVHPRLSTDAAQALQDFYLELRKQSQRVGSSPITTRQLESLIRLTEARARLELREEATREDAEDIIEIMKHSMLGTYSDEFGNLDFERSQHGSGMSNRSTAKRFISALNSIAERTYNNIFQYHQLRQIAKELNIQVADFENFIGSLNDQGYLLKKGPKIYQLQTM
# notes: Endogenous protein in mouse testes extracts and MEF cell extracts
# What was measured:
# [1] = target: B2; assay: co-immunoprecipitation from mouse testes extracts, western blot (FIG. 18A)
# Text: (§1) FIG. 18A represents immunoprecipitations of MCM8 (IP anti-MCM8; lane C) and MCM9 (IP anti-MCM9; lane D) from testes extracts blotted against MCM9 (panel 1), MCM8 (panel 2), MCM2 (panel 3) and MCM5 (panel 4). To normalize the loading, IgGs of each IP are also shown (panel 5).
# [2] = target: T1, MCM2 (mouse, UniProt P97310 2-904); assay: as above
# T1 construct: Detected by western blot (sc-9839) in the immunoprecipitates from mouse testes extracts; also called member of the MCM2-7 complex
# T1 sequence (P97310 2-904 limits assumed): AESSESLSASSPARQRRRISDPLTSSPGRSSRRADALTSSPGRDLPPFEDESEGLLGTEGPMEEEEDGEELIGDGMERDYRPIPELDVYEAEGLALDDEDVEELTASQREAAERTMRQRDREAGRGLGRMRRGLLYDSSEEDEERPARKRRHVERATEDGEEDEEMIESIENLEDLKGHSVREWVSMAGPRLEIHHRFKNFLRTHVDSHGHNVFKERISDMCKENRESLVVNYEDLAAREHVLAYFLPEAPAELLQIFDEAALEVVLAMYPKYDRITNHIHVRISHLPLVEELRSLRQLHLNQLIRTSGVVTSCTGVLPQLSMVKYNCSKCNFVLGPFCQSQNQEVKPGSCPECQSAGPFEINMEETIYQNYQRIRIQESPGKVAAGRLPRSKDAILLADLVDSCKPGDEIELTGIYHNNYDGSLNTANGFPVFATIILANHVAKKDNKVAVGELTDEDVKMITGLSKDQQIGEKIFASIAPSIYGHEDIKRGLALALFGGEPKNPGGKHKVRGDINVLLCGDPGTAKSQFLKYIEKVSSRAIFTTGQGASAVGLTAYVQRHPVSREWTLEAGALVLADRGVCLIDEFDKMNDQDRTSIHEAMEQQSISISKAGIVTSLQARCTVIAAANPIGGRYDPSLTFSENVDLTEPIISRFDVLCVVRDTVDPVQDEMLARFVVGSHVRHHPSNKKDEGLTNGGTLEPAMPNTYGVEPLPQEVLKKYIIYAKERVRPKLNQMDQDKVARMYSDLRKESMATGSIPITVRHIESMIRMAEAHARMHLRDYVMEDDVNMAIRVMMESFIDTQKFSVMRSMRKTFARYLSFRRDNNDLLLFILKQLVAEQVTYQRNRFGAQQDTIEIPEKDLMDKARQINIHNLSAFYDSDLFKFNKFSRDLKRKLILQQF
# Text: as §1
Binder,binding result [1],binding result [2]
B1,no binding,–
B2,–,no binding
